Here are results for two substances from patent publication EP3515493A1.

For the assay, the target named is HLA-DR, human (human). Briefly: cell-based or functional assay.

In the case of Lym-2 CAR, the lysis rate (LDH cytotoxicity assay, Raji target cells) was 22%.
As to Lym-1 CAR, the lysis rate (LDH cytotoxicity assay, Raji target cells) worked out at 22%.
